Assay results published in the DeepSol protein solubility set.

Assay: soluble on expression in E. coli; label from the status in PepcDB or PDB records

| Sequence | soluble on expression in E. coli |
| --- | --- |
| MSLYPLVLDLAATGVPVAVTCRELGFTKQGFYKWCAHPVSARDWDEAHLINAAYDVHTDDPEFGHRFIADELHAAGLQTSERRVWRLCSQQQLFSHTIKRARKHGKKPGPPVCDDLVERDFTAKAINELWLTDVTEHHTSEGKLYMCAVKDVFSNRIVGYAIDSRMKSRLAVAAIDDAVARRGGSGMIAGCVVHSDRGSQFRSRKFQQALRHYGLVGSMGRVGAAGDNAAMESFFAVLQKNVLDRGRWDTRARLRTAIVHWVERTYHRKRRQRRLGKLTPVEYELVHQKAVALAAEGHHHHHH | not soluble |
| MSLYQEFFTFIPVDIEELDKAFGGGLIRGATISIMYDAFSLGWALGFEMVKNLIRRNSFGVIHNYNLPTIKLISRASFVGLNIQELAKRKEIMILDVFGSKYDVPPYADYVLQVPNPTPETLNPKIESVYENKIFQVAGDRRIVKLVYTLDGVATMFGEEVAIKLLNGELAWLAKMYGKRNVMTILLLNVDMVSKKFIAWTSGVSDIVITFQSLTEEREGELVERMTVIKSLNPEFEPTSYEFRVTATGTGSHALDFRKIENEGHHHHHH | not soluble |
| MSMSDINKNSELIFIPAPGIGHLASALEFAKLLTNHDKNLYITVFCIKFPGMPFADSYIKSVLASQPQIQLIDLPEVEPPPQELLKSPEFYILTFLESLIPHVKATIKTILSNKVVGLVLDFFCVSMIDVGNEFGIPSYLFLTSNVGFLSLMLSLKNRQIEEVFDDSDRDHQLLNIPGISNQVPSNVLPDACFNKDGGYIAYYKLAERFRDTKGIIVNTFSDLEQSSIDALYDHDEKIPPIYAVGPLLDLKGQPNPKLDQAQHDLILKWLDEQPDKSVVFLCFGSMGVSFGPSQIREIALGLKHSGVRFLWSNSAEKKVFPEGFLEWMELEGKGMICGWAPQVEVLAHKAIGGFVSHCGWNSILESMWFGVPILTWPIYAEQQLNAFRLVKEWGVGLGLRVDYRKGSDVVAAEEIEKGLKDLMDKDSIVHKKVQEMKEMSRNAVVDGGSSLISVGKLIDDITGSN | soluble |
| MSMSSTVIKFRAGVCEYNEDSRLCTPIPVQGEIEIKPNEEEELGFWDFEWRPTEKPVGRELDPISLILIPGETMWVPIKSSKSGRIFALVFSSNERYFFWLQEKNSGNLPLNELSAKDKEIYNKMIGVLNNSSESDEEESNDEKQKAQDVDVSMQD | soluble |
| MSNDHLETTGSSDPNTNLLKYLPIVLNPDRTITRPIQIPSTAASPDPTSSSPVLTKDLALNPLHNTFVRLFLPRHALYNSAKLPLVVYFHGGGFILFSAASTIFHDFCCEMAVHAGVVIASVDYRLAPEHRLPAAYDDAMEALQWIKDSRDEWLTNFADFSNCFIMGESAGGNIAYHAGLRAAAVADELLPLKIKGLVLDEPGFGGSKRTGSELRLANDSRLPTFVLDLIWELSLPMGADRDHEYCNPTAESEPLYSFDKIRSLGWRVMVVGCHGDPMIDRQMELAERLEKKGVDVVAQFDVGGYHAVKLEDPEKAKQFFVILKKFVVDSCTTKLKLN | soluble |
| MSNLNPCMTCGACCAFFRVSFYWAEADDAGGTIPARLTEQISPFHRCMSGTNQKNPRCIALAGTPGKNACCTIYKNRSSTCREFAMSGENGVVNEACNRARAKYGLTPL | not soluble |
| MSNNGSSPLVLWYNQLGMKDVDRVGGKNASLGEMITNLSGMGVSVPNGFATTADAFNQFLDQSGVNQRIYELLDKTDIDDVTQLAKAGAQIRQWIIDTPFQPELENAIREAYAQLSADDENASFAVRSSATAEDMPDASFAGQQETFLNVQGFDAVLVAVKHVFASLFNDRAISYRVHQGYDHRGVALSAGVQRMVRSDLASSGVMFSIDTESGFDQVVFITSAWGLGEMVVQGAVNPDEFYVHKPTLAANRPAIVRRTMGSKKIRMVYAPTQEHGKQVKIEDVPQEQRDIFSLTNEEVQELAKQAVQIEKHYGHPMDIEWAKDGHTGKLFIVQARPETVRSRGQVMERYTLHSQGKIIAEGRAIGHRIGAGPVKVIHDISEMNRIEPGDVLVTDMTDPDWEPIMKKASAIVTNRGGRTCHAAIIARELGIPAVVGCGDATERMKDGENVTVSCAEGDTGYVYAELLEFSVKSSSVETMPDLPLKVMMNVGNPDRAFDFACLPNEGVGLARLEFIINRMIGVHPRALLEFDDQEPQLQNEIREMMKGFDSPREFYVGRLTEGIATLGAAFYPKRVIVRLSDFKSNEYANLVGGERYEPDEENPMLGFRGAGRYVSDSFRDCFALECEAVKRVRNDMGLTNVEIMIPFVRTVDQAKAVVEELARQGLKRGENGLKIIMMCEIPSNALLAEQFLEYFDGFSIGSNDMTQLALGLDRDSGVVSELFDERNDAVKALLSMAIRAAKKQGKYVGICGQGPSDHEDFAAWLMEEGIDSLSLNPDTVVQTWLSLAELKK | not soluble |
| MSNPILTSTLIILRGNSSSGKTTIAKQLQEHFGQGTLLVSQDVVRRDMLRVHDTMGNLSHDLLFEITKYGKGKCEFVILEGILNSHRYGEMLKELIRYFDENAFAYYFDLSLEETIRRHNTRDKRHEFGEDSLQKWYNPHDTIKVATETIFTDNFTQKDIFDAILNDVAIEKQALEHHHHHH | soluble |
| MSNQDYTGVRVEGARKLRSTLKKAGIDVRDDMKQAHKDAASIVSRRAAQITPVGPGSRRHKPGQLKASVRPAGTQTAAIVRAGKKRVPYAGPIQWGWHKRKIKPTFFLTRAASDTEPAWLKGYEKKFNQILDSIEGK | not soluble |
| MSNVQEWQQLANKELSRREKTVDSLVHQTAEGIAIKPLYTEADLDNLEVTGTLPGLPPYVRGPRATMYTAQPWTIRQYAGFSTAKESNAFYRRNLAAGQKGLSVAFDLATHRGYDSDNPRVAGDVGKAGVAIDTVEDMKVLFDQIPLDKMSVSMTMNGAVLPVLAFYIVAAEEQGVTPDKLTGTIQNDILKEYLCRNTYIYPPKPSMRIIADIIAWCSGNMPRFNTISISGYHMGEAGANCVQQVAFTLADGIEYIKAAISAGLKIDDFAPRLSFFFGIGMDLFMNVAMLRAARYLWSEAVSGFGAQDPKSLALRTHCQTSGWSLTEQDPYNNVIRTTIEALAATLGGTQSLHTNAFDEALGLPTDFSARIARNTQIIIQEESELCRTVDPLAGSYYIESLTDQIVKQARAIIQQIDEAGGMAKAIEAGLPKRMIEEASAREQSLIDQGKRVIVGVNKYKLDHEDETDVLEIDNVMVRNEQIASLERIRATRDDAAVTAALNALTHAAQHNENLLAAAVNAARVRATLGEISDALEVAFDRYLVPSQCVTGVIAQSYHQSEKSASEFDAIVAQTEQFLADNGRRPRILIAKMGQDGHDRGAKVIASAYSDLGFDVDLSPMFSTPEEIARLAVENDVHVVGASSLAAGHKTLIPELVEALKKWGREDICVVAGGVIPPQDYAFLQERGVAAIYGPGTPMLDSVRDVLNLISQHHD | soluble |
| MSNWGDYQLGGLAPPTEPWLAIRPFLQLPHDFKIVFLSIERGLTRKNDFKTVRQLQKWAYCKPRFCGRGQSPELVIPPVGHPPSSSGLIVKIKQMIRSCVRLASQSTNKLLIFSSLSRNSQLYISMSSSDLGRGFKQGRGTGDSGQSSLYNNERRWKDDDTFNALGATDELSSFLGVCGASAQNDGSMSDVVETLTRLQCCLQDVGAHLATPPKNSSERKQKKTAFDIAMVEWINAEIDRYGDALPAIRQFILSGGGMTSAQLQYSRAICRRAERSIVPLMRDEDVDPMALKFLNRMSDLLFVLGRTACMRNKNEELTYLRPDSFTNLKWDRKSLHEKK | not soluble |
| MSPDKQAAALPRRERNRQAAAASPENSRGKGRRGQRGKNRGCVLTAIHLNVTDLGLGYETKEELIFRYCSGSCEAAETMYDKILKNLSRSRRLTSDKVGQACCRPVAFDDDLSFLDDSLVYHILRKHSAKRCGCI | soluble |
| MSPHYLRQVKESSGSRLIQQRLLHQQQPLHPEWAALAKKQLKGKNPEDLIWHTPEGISIKPLYSKRDTMDLPEELPGVKPFTRGPYPTMYTFRPWTIRQYAGFSTVEESNKFYKDNIKAGQQGLSVAFDLATHRGYDSDNPRVRGDVGMAGVAIDTVEDTKILFDGIPLEKMSVSMTMNGAVIPVLANFIVTGEEQGVPKEKLTGTIQNDILKEFMVRNTYIFPPEPSMKIIADIFEYTAKHMPKFNSISISGYHMQEAGADAILELAYTLADGLEYSRTGLQAGLTIDEFAPRLSFFWGIGMNFYMEIAKMRAGRRLWAHLIEKMFQPKNSKSLLLRAHCQTSGWSLTEQDPYNNIVRTAIEAMAAVFGGTQSLHTNSFDEALGLPTVKSARIARNTQIIIQEESGIPKVADPWGGSYMMECLTNDVYDAALKLINEIEEMGGMAKAVAEGIPKLRIEECAARRQARIDSGSEVIVGVNKYQLEKEDTVEVLAIDNTSVRNRQIEKLKKIKSSRDQALAERCLAALTECAASGDGNILALAVDASRARCTVGEITDALKKVFGEHKANDRMVSGAYRQEFGESKEITSAIKRVHKFMEREGRRPRLLVAKMGQDGHDRGAKVIATGFADLGFDVDIGPLFQTPREVAQQAVDADVHAVGVSTLAAGHKTLVPELIKELNSLGRPDILVMCGGVIPPQDYEFLFEVGVSNVFGPGTRIPKAAVQVLDDIEKCLEKKQQSVAENLYFQSHHHHHHDYKDDDDK | soluble |
| MSPLPIIEVMPKLLSGITNSPQLILKAAPGAGKSTYFPLQLLQAGGFHGKIIMLEPRRLAARNIARYLAQQLGEEVGQRVGYRVRGENRVSRATQLEIVTEGIMTRMLQNDPELDGVDVLIFDEFHERSIHADTALALALEVQSALREDLKIVVMSATLDQQALQNLLPQASYVESQGRGFPIEIRYQPLRSDEPLVTAMQRQIRHLLQHETGSLLAFLPGAASINQLTEQLSDLASEVEICPLYGQMEFAAQQRAIAPTAAGRRKVVLATNIAETSLTIEGIRIVLDSGLERSARFDLKTGITRLEQVRIAQSSAEQRAGRAGRLEPGICVRLYSEAQLKQQPWVPEPEMLHTDLAPLALELAQWGAQPSDLAWLNLPPSSAFAQAQQLLQRLGLLDARTQITAAGKEAHLLGVEPRIAAMLLSADRLGESALQSALALTVLLEEPERQVIDVQHSLHRWQQGRHPKQKLLIQRAQSLAHKLDTAFSLSSVDSAWLPLVACLAFPDRIAQQRGQQTGQFLLANGHGAWLAVEDRLSAADYLVALDLMRGQTQASQIFSALELDIHALERVLPALISRVEQVDWDEKAGRLSAEAQWRIDQLVLRREKLPEPDKQKMTQALLSYVRRKGLTVLQWSEDASEWLARARCAAEWLPEEAWPALDDETLLARLELWLEPYLAGVTSVKGLQSVSVLQALKHYLGWELSQQLDEWLPTHHLLPTGNHKKIRYQLGMEPTLSVRMQEVFGEQSSPRVAKGTRAVVMELLSPAQRPLQVTRDLASFWAGAYKEVQKEMKGRYPKHVWPDDPANHVATSKTKRQLNA | soluble |
| MSPLTTFLTDAQQQTLHQLIVSARDSGANEEMVKESMDEYLAQILSPDRLQELKTAHDEFEAQRRGKRAAISASDKPEPKKVFDIIDQFTSDYQKFYEESSAVRNRNNIN | soluble |
| MSPNCETPTSSLSTSLRFVPSLACIAEEEPKVIGIRKITVPGSSKPFQVQIPLYDLNIYAPEPPKQPLPDSYQRLLAEMDQYIGGHQNSEMYKEMAKNLRHKVAVEQAENNRLSKSNFTNRDWYWYAEQTRAFVDEPVINSTSKTQESNISECLEETSSSAKSTVMKDEDLFDLSADF | not soluble |
